Measurements reported in patent US20240117030A1 (Pfizer, published 2024).

T1: human IL-4 (human, UniProt P05112 25-153)
T1 sequence (looked up): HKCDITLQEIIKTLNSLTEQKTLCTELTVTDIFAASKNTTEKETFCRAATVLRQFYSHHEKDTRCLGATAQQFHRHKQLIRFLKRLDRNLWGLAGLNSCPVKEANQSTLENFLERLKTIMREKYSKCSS

T2: recombinant human IL-33 (wild type, Ser112-Thr270) (human, UniProt O95760 112-270)
T2 sequence (looked up): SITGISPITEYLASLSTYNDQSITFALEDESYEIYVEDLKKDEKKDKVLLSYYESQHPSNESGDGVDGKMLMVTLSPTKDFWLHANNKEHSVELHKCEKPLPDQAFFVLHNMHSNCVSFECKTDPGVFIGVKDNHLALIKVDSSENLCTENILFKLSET

T3: recombinant human IL-4 (human, UniProt P05112 25-153)
T3 sequence (looked up): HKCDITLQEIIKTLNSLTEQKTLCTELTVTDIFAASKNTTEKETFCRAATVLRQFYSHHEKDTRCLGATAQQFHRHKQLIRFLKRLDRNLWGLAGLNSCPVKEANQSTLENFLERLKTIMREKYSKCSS

T4: IL-33 mm2 (human, UniProt O95760 112-270, limits assumed)
T4 sequence (looked up): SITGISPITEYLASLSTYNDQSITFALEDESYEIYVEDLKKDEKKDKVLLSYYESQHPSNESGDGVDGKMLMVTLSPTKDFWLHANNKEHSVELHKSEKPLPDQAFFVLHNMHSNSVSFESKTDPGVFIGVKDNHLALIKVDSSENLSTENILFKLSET

B1: IL13433-1270 (other)
heavy: EVQLVESGGGLVQPGGSLRLSCAASGFTFSSYWMYWVRQAPGKGLEWVAAITPNAGEDYYPESVKGRFTISRDNAKNSLYLQMNSLRAEDTAVYYCARGQYYYTKYSLGYWGQGTLVTVSSASTKGPSVFPKAPSSKSTSGGTAALGCLVKDYFPEPVTVSWNSGALTSGVHTFPAVLQSSGLYSLSSSVTVPSSSLGTQTYICNVNHKPSNTKVDKKVEPKSCDKTHTCPPCPAPEAAGAPSVFLFPPKPKDTLMISRTPEVTCVVVDVSHEDPEVKFNWYVDGVEVHNAKTKPREEQYNSTYRVVSVLTVLHQDWLNGKEYKCKVSNKALPAPIEKTISKAKGQPREPQVCTLPPSREEMTKNQVSLWCLVKGFYPSDIAVEWESNGQPENNYKTTPPVLDSDGSFFLYSKLTVDKSRWQQGNVFSCSVLHEALHSHYTQKSLSLSPGK
chain 1: DIQMTQSPSSLSASVGDRVTITCKASESVDHFGWSLVHWYQQKPGKAPKLLIYRASNLESGVPSRFSGSGSGTDFTLTISSLQPEDFATYYCQQSNEDPWTFGGGTKVEIKRTVAAPSVFIFPPSDEQLKSGTASVVCLLNNFYPREAKVQWKVDNALQSGNSQESVTEQDSKDSTYSLSSTLTLSKADYEKHKVYACEVTHQGLSSPVTKSFNRGECGGGGSEVTLRESGPALVKPTQTLTLTCTFSGFSLSNFGEGLSWIRQPPGKGLEWLAHIYWDDDKRYNPSLKSRLTISKDTSRNQVVLTMTNMDPVDTATYYCARRETVFYWYFDVWGQGTTVTVSSASTKGPSVFPEAPSSKSTSGGTAALGCLVKDYFPEPVTVSWNSGALTSGVHTFPAVLQSSGLYSLGSVVTVPSSSLGTQTYICNVNHKPSNTKVDKKVEPKSCDKTHTCPPCPAPEAAGAPSVFLFPPKPKDTLMISRTPEVTCVVVDVSHEDPEVKFNWYVDGVEVHNAKTKPREEQYNSTYRVVSVLTVLHQDWLNGKEYKCKVSNKALPAPIEKTISKAKGQPREPQVYTLPPCREEMTKNQVSLSCAVKGFYPSDIAVEWESNGQPENNYKTTPPVLDSDGSFFLVSKLTVDKSRWQQGNVFSCSVLHEALHSHYTQKSLSLSPGK
light 1: DIQMTQSPSSLSASVGDRVTITCRASQPIHNHLDWYQQKPGKAPKLLIYFGKNLQEGVPSRFSGSGSGTDFTLTISSLQPEDFATYYCFQYKKGWSFGGGTKVEIKRTVAAPSVFIFPPSDEQLKSGTASVSCLLNNFYPREAKVQWKVDNALQSGNSQESVTEQDSKDSTYSLDSTLTLSKADYEKHKVYACEVTHQGLSSPVTKSFNRGEC
light 2: DIQMTQSPSSLSASVGDRVTITCRASQSVDEEGDSYMNWYQQKPGKAPKLLIYAASNLESGVPSRFSGSGSGTDFTLTISSLQPEDFATYYCQQSNKDPPTFGGGTKVEIKRTVAAPSVFIFPPSDEQLKSGTASVSCLLNNFYPREAKVQWKVDNALQSGNSQESVTEQDSKDSTYSLKSTLTLSKADYEKHKVYACEVTHQGLSSPVTKSFNRGEC
chain 2: EVQLVESGGGLVQPGGSLRLSCAASGFTFSSYAMSWVRQAPGKGLEWVASISSGDTTYYPDSVKGRFTISRDNAKNSLYLQMNSLRAEDTAVYYCARNEGYYFGLTLWGQGTLVTVSSASTKGPSVFPLAPSSKSTSGGTAALGCLVKDYFPEPVTVSWNSGALTSGVHTFPAVLQSSGLYSLSSVVTVPSSSLGTQTYICNVNHKPSNTKVDKKVEPKSC
B2: IL13433-0005 (other)
heavy: EVTLRESGPALVKPTQTLTLTCTFSGFSLSNFGEGLSWIRQPPGKGLEWLAHIYWDDDKRYNPSLKSRLTISKDTSRNQVVLTMTNMDPVDTATYYCARRETVFYWYFDVWGQGTTVTVSSASTKGPSVFPEAPSSKSTSGGTAALGCLVKDYFPEPVTVSWNSGALTSGVHTFPAVLQSSGLYSLGSVVTVPSSSLGTQTYICNVNHKPSNTKVDKKVEPKSCDKTHTCPPCPAPEAAGAPSVFLFPPKPKDTLMISRTPEVTCVVVDVSHEDPEVKFNWYVDGVEVHNAKTKPREEQYNSTYRVVSVLTVLHQDWLNGKEYKCKVSNKALPAPIEKTISKAKGQPREPQVYTLPPCREEMTKNQVSLSCAVKGFYPSDIAVEWESNGQPENNYKTTPPVLDSDGSFFLVSKLTVDKSRWQQGNVFSCSVMHEALHNHYTQKSLSLSPGK
chain 1: DIQMTQSPSSLSASVGDRVTITCKASQNINKHLDWYQQKPGKAPKLLIYFTNNLQTGVPSRFSGSGSGTDFTLTISSLQPEDFATYYCFQYNQGWTFGGGTKVEIKRTVAAPSVFIFPPSDEQLKSGTASVVCLLNNFYPREAKVQWKVDNALQSGNSQESVTEQDSKDSTYSLSSTLTLSKADYEKHKVYACEVTHQGLSSPVTKSFNRGECGGGGSEVQLVESGGGLVQPGGSLRLSCAASGFTFSSYAMSWVRQAPGKGLEWVASISSGDTTYYPDSVKGRFTISRDNAKNSLYLQMNSLRAEDTAVYYCARNEGYYFGLTLWGQGTLVTVSSASTKGPSVFPKAPSSKSTSGGTAALGCLVKDYFPEPVTVSWNSGALTSGVHTFPAVLQSSGLYSLSSSVTVPSSSLGTQTYICNVNHKPSNTKVDKKVEPKSCDKTHTCPPCPAPEAAGAPSVFLFPPKPKDTLMISRTPEVTCVVVDVSHEDPEVKFNWYVDGVEVHNAKTKPREEQYNSTYRVVSVLTVLHQDWLNGKEYKCKVSNKALPAPIEKTISKAKGQPREPQVCTLPPSREEMTKNQVSLWCLVKGFYPSDIAVEWESNGQPENNYKTTPPVLDSDGSFFLYSKLTVDKSRWQQGNVFSCSVMHEALHNHYTQKSLSLSPGK
light 1: DIQMTQSPSSLSASVGDRVTITCKASQSVDEDGDSYMNWYQQKPGKAPKLLIYAASNLESGVPSRFSGSGSGTDFTLTISSLQPEDFATYYCQQSNEDPPTFGGGTKVEIKRTVAAPSVFIFPPSDEQLKSGTASVSCLLNNFYPREAKVQWKVDNALQSGNSQESVTEQDSKDSTYSLKSTLTLSKADYEKHKVYACEVTHQGLSSPVTKSFNRGEC
light 2: DIQMTQSPSSLSASVGDRVTITCKASESVDHFGWSLVHWYQQKPGKAPKLLIYRASNLESGVPSRFSGSGSGTDFTLTISSLQPEDFATYYCQQSNEDPWTFGGGTKVEIKRTVAAPSVFIFPPSDEQLKSGTASVSCLLNNFYPREAKVQWKVDNALQSGNSQESVTEQDSKDSTYSLDSTLTLSKADYEKHKVYACEVTHQGLSSPVTKSFNRGEC
chain 2: EVQLVESGGGLVQPGGSLRLSCAASGFTFSSYWMYWVRQAPGKGLEWVAAITPNAGEDYYPESVKGRFTISRDNAKNSLYLQMNSLRAEDTAVYYCARGHYYYTSYSLGYWGQGTLVTVSSASTKGPSVFPLAPSSKSTSGGTAALGCLVKDYFPEPVTVSWNSGALTSGVHTFPAVLQSSGLYSLSSVVTVPSSSLGTQTYICNVNHKPSNTKVDKKVEPKSC

Key:
Assay in all cases: cell-based or functional assay
human IL-4 = target: T1, human IL-4
human IL-13 = human IL-13 (human, UniProt P35225 35-146)
[1] = target: T2, recombinant human IL-33 (wild type, …)
recombinant human IL-4 = target: T3, recombinant human IL-4
recombinant human IL-13 = recombinant human IL-13 (human, UniProt P35225 35-146)
IL-33 mm2 = target: T4, IL-33 mm2

human IL-13, sequence (P35225 35-146 limits assumed): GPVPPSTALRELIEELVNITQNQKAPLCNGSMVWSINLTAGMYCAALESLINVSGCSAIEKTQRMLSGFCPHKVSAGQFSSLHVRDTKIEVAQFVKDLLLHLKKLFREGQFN
recombinant human IL-13, sequence (P35225 35-146 limits assumed): as above

Binder | a-hIL-4 bioassay IC50, pM) (human IL-4) | a-hIL-13 bioassay (IC50, pM) (human IL-13) | a-IL-33 bioassay (WT IL33) IC50 (pM) [1] | IL-4 Induced CD23 Expression, potency of cytokine neutralization (recombinant human IL-4) | IL-13 Induced CD23 Expression, potency of cytokine neutralization (recombinant human IL-13) | IL-33 mm2 Cys Activation of SEAP Reporter Cells, potency of cytokine neutralization (IL-33 mm2)
B1 | 16.5 pM | 7.58 pM | 12 pM | – | – | –
B2 | – | – | – | 0.0032 nM | 0.0125 nM | 0.045 nM
